In PMC7072391 one finds pTrkA (Y490) level by western blot, cholinergic neurons treated 7′ with 100 ng/mL (3.84 nM) NGF and pTrkA (Y490) level by western blot, cholinergic neurons treated 7′ with 10 μM peptide data, which are given here for four substances.

This test deals with tropomyosin receptor kinase A (TrkA) (rat (endogenous in primary septal cholinergic neurons)) (UniProt P35739).
UniProt P35739, sequence (P35739 33-799): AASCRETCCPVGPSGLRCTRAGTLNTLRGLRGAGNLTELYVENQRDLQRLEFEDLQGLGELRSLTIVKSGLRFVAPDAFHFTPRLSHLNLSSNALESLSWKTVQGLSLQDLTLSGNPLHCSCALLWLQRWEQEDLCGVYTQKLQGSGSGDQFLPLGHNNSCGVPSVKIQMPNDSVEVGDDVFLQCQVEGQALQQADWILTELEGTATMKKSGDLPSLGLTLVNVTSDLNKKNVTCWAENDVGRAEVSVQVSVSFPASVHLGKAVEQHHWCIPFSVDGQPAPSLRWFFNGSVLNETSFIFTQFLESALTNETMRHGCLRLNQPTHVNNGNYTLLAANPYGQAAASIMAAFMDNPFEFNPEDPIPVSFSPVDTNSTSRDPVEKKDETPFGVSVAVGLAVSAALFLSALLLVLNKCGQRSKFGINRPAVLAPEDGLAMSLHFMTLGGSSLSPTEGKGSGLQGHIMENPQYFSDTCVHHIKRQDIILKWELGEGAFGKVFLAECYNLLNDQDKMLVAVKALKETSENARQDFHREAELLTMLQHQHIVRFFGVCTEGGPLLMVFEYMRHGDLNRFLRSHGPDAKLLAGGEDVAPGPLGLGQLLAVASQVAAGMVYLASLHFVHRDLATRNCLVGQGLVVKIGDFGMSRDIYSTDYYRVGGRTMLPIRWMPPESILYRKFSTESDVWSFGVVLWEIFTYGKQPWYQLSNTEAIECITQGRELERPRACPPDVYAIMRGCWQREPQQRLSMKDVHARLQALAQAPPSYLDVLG

For “Nerve Growth Factor (NGF), murine (from UniProt P01139 122-241) (ligand)”, the pTrkA (Y490) level by western blot, cholinergic neurons treated 7′ with 100 ng/mL (3.84 nM) NGF was 161 % of CTR.
As for acetylated monomer Ac-hNGF1–14 peptide, the pTrkA (Y490) level by western blot, cholinergic neurons treated 7′ with 10 μM peptide was 296 % of CTR.
On to “human NGF 1–14 sequence, monomeric hNGF1–14 peptide”, for which the pTrkA (Y490) level by western blot, cholinergic neurons treated 7′ with 10 μM peptide was 153 % of CTR.
Regarding hNGF1–15 dimer (peptide), the pTrkA (Y490) level by western blot, cholinergic neurons treated 7′ with 10 μM peptide was 155 % of CTR.
